Assay results as given in PMC6568194, “Molecular and Biochemical Characterization of a Type II Thioesterase From the Zoonotic Protozoan Parasite Cryptosporidium parvum” (Frontiers in Cellular and Infection Microbiology, 2019).

Substrate: CCCCCCCCCC(=O)SCCNC(=O)CCNC(=O)[C@H](O)C(C)(C)COP(=O)(O)OP(=O)(O)OC[C@H]1O[C@@H](n2cnc3c(N)ncnc32)[C@H](O)[C@@H]1OP(=O)(O)O
Assay: purified protein
Type: biochemical, Cryptosporidium parvum
Conditions: 0.1 M HEPES pH 7.4, 50 mM KCl, 50 μM DTNB, MBP-tag background subtracted, temperature not given

B1: CpTEII (MBP-CpTEII) (Cryptosporidium parvum Iowa II) (protein)
chain: MSKSDFDKWFPSYSKVNSHLINLGSRNQPICRLLCIHGAGGSDQIFVKKDLNTGRESSNILLDYAQENGIELLVLQLPGRAGRSHEACYEDIATLINDFYPVFKSHFFGKANLTEYIELIPWVIVGHSMGGLIGFELLKRIKFEQLKDFSAKFGVTDQSGFENKIVKLLREKRIFPELFIIMSSFPPNIPEYDRPWRKNEELNDEEFKQECREWGINQNVFKKGIWEEFEKQLRCDFTMFDSFEMNLVDKIFYCSNQSLYNFMYPLGVDAQLWSASQDSKVTKDIMNKWKELLTSNGNSLDTREIDAQHNFLHDPKARKEWMQDLSTSLDKIILDLEYY
notes: entire ORF (339 aa, 39 kDa) from genomic DNA, N-terminal MBP tag kept (intact fusion assayed), C-terminal His-tag, pMAL-c2e-TEV, expressed in E. coli Rosetta 2
Km: 172.2 µM
kcat: 0.0253 s⁻¹
